In patent US10202593B2, “Evolved sortases and uses thereof” (President and Fellows of Harvard College, priority 2013, dated 2019):
Positions count from the first letter of the chain named. Names and notes keep the numbering of the source. Values joined by “and” are separate entries in the source; they are usually repeats but may differ in a detail not shown here. Identical values can stand only once. Like-named read-outs stand apart in the source and are kept apart here.

How the values were obtained:
Type in all cases: biochemical
[1] = system: LPETG (Abz-LPETGK(Dnp)-CONH2); assay: In vitro sortase kinetics HPLC assay, LPETG substrate; conditions: for KN: eight GGG concentrations; for KH,LPETG: LPETG substrate; for Rel. Activity: kcat/Km of the enzyme's preferred substrate relative to kcat/Km on this substrate
Method in brief: (§1)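 Abz-LXEXGK(Dnp) peptides in 300 mM Tris pH 7.5, 150 mM NaCl, 5 mM CaCl2, 5% DMSO, GGG; 22.5° C., acid-quenched, converted fraction by reverse-phase HPLC peak areas. kcat and Km from eight substrate concentrations fit to Michaelis-Menten; KH at 1 mM substrate over eight GGG levels.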

[2] = system: LAETG (Abz-LAETGK(Dnp)-CONH2); assay: In vitro sortase kinetics HPLC assay, LAETG substrate; conditions: for Rel. Activity: kcat/Km of the enzyme's preferred substrate relative to kcat/Km on this substrate
Method in brief: as §1

[3] = system: LPESG (Abz-LPESGK(Dnp)-CONH2); assay: In vitro sortase kinetics HPLC assay, LPESG substrate; conditions: for KN: eight GGG concentrations; for Rel. Activity: kcat/Km of the enzyme's preferred substrate relative to kcat/Km on this substrate
Method in brief: as §1

[4] = system: LSETG; assay: In vitro sortase kinetics HPLC assay, LSETG substrate
Experimental: (§2) See below for details on sortase expression and purification, and on the synthesis of Abz-LPETGK(Dnp)-CONH2 (SEQ ID NO: 19). […] Reactions were initiated with the addition of enzyme and incubated at 22.5° C. for 3 to 20 minutes before quenching with 0.5 volumes of 1 M HCl. Five to ten nmol of peptide from the quenched reactions were injected onto an analytical reverse-phase Eclipse XDB-C18 HPLC column (4.6×150 mm, 5 μm, Agilent Technologies) and chromatographed using a gradient of 10 to 65% acetonitrile with 0.1% TFA in 0.1% aqueous TFA over 13 minutes. Retention times under these conditions for the Abz-LPETGK(Dnp)-CONH2 (SEQ ID NO: 19) substrate, the released GKDnp peptide, and the Abz-LPETGGG-COOH (SEQ ID NO: 20) product were 12.8, 10.4, and 9.1 min, respectively. To calculate the percent conversion, the ratio of the integrated areas of the Abz-LPETGGG-COOH (SEQ ID NO: 20) and Abz-LPETGK(Dnp)-CONH2 (SEQ ID NO: 19) peptide Abs220 peaks was compared to a standard curve generated by mixing the product and starting peptide in known ratios. To determine […] and Km, reaction rates were fit to the Michaelis-Menten equation using OriginPro 7.0 software. All kinetics values reported represent the average of at least three measurements. Percent conversion was also calculated by using the ratio of the integrated areas of the GK(Dnp)-CONH2 and Abz-LPETGK(Dnp)-CONH2 peptide Abs355 peaks were compared directly (Example 5). To determine kcat and Km, LPETG, reaction rates were fit to the Michaelis-Menten equation using Microsoft Excel using the Solver add-in. To determine Km,GGG and KH, reaction rates were fit to the modified Michaelis-Menten, for which KH is as defined when KH<<Km,GGG.
(§3) Assays to determine eSrtA, eSrtA(2A-9) and eSrtA(4S-9) specificity were performed by preparing 10 μM stocks of Abz-LXEXGK(Dnp) (SEQ ID NO: 75) peptides in 300 mM Tris pH 7.5, 150 mM NaCl, 5 mM CaCl2, 5% v/v DMSO, and 100 mM Gly-Gly-Gly-COOH (GGG). Reactions were performed by adding eSrtA(2A-9) to a final concentration of 450 nM, eSrtA(4S-9) to a final concentration of 115 nM or eSrtA to a final concentration of 47.5 nM and a final volume of 100 μL, then incubating at 22.5° C. for 15 minutes. Reactions were quenched by the addition of 0.2 volumes of 5 M HCl, then were injected onto an analytical reverse-phase Eclipse XDB-C18 HPLC column (4.6×150 mm, 5 μm, Agilent Technologies) and chromatographed using a gradient of 10 to 65% acetonitrile with 0.1% TFA in 0.1% aqueous TFA over 13 minutes. Retention times under these conditions for the Abz-LPETGK(Dnp)-CONH2 (SEQ ID NO: 19) substrate, the released GKDnp peptide, and the Abz-LPETGGG-COOH (SEQ ID NO: 20) product were 12.8, 10.4, and 9.1 min, respectively, while the remaining Abz-LXEXGK(Dnp)-CONH2 (SEQ ID NO: 74) substrates varied in retention time between 9 and 13 minutes. To calculate the percent conversion, the ratio of the integrated areas of the GK(Dnp)-CONH2 and Abz-LPETGK(Dnp)-CONH2 (SEQ ID NO: 19) peptide Abs355 peaks were compared directly. Subsequent determination of kcat/Km and KH were performed as described for in vitro SrtA characterization.
(§4) The original pentamutant comprising the mutations P94R, D160N, D165A, K190E, and K196T is referred to as eSrtA. Sortase variants herein were evolved using eSrtA as the parent enzyme in the evolution experiments. In some cases, an evolved sortase comprises a N160K mutation instead of a D160N or a T196S mutation instead of a K196T. Parameters are reported with their standard deviations as determined from three technical replicates. kcat, Km and kcat/Km parameters were determined at 100 mM GGG concentration, while Km,GGG and KH parameters were determined at 1 mM concentration of the listed substrate.

[5] = system: LPEAG; assay: In vitro sortase kinetics HPLC assay, LPEAG substrate
Experimental: as §2, §3, §4

[6] = Sub LPETG, 100 mM GGG, read-out: Km
[7] = Table 2, Sub LPETG, read-out: Km
[8] = Sub LAETG, 100 mM GGG, read-out: Km
[9] = Table 2, Sub LAETG, read-out: Km
[10] = Sub LPESG, 100 mM GGG, read-out: Km
[11] = Table 2, Sub LPESG, read-out: Km
[12] = Sub LPEAG, 100 mM GGG, read-out: Km
[13] = GGG varied, substrate wt (LPETG)
[14] = GGG varied, substrate 4S (LPESG)

B1: eSrtA (protein)
chain: QAKPQIPKDKSKVAGYIEIPDADIKEPVYPGPATREQLNRGVSFAEENESLDDQNISIAGHTFIDRPNYQFTNLKAAKKGSMVYFKVGNETRKYKMTSIRNVKPTAVEVLDEQKGKDKQLTLITCDDYNEETGVWETRKIFVATEVK
KH ([1]; 1 mM LPETG): 32.8 ± 2.4 µM
KN ([1]; 1 mM LPETG): 32.8 ± 2.4 µM
Km ([1]; 1 mM LPETG, read-out: Km,GGG): 1617 ± 13 µM
Khydrolysis ([1]; 1 mM wt (LPETG) substrate): 22.59 µM
kcat, 1 mM LxExG (Hz) ([1]; 1 mM wt (LPETG) substrate, GGG varied): 7.245 Hz
Km ([1]; 1 mM wt (LPETG) substrate, read-out: Km, GGG): 2990 µM
KH,LPETG [1]: 32.8 ± 2.4 µM
Kcat (Hz) ([1]; Sub LPETG, 100 mM GGG): 5.4 ± 0.4 Hz
Km [1, 6]: 230 ± 20 µM
Rel. Activity ([1]; Sub LPETG): 1
Kcat (Hz) ([1]; Table 2, Sub LPETG): 5.4 ± 0.4 Hz
Km [1, 7]: 230 ± 20 µM
kL/KL/KH ([1]; substrate wt (LPETG)): 1.20E+09
kHydrolysis (Hz) ([1]; substrate wt (LPETG), 1 mM, GGG varied): 0.05546 Hz
kcat, 10 mM GGG (Hz) ([1]; substrate wt (LPETG), 10 mM GGG): 5.622 Hz
Km ([1]; substrate wt (LPETG), read-out: Km, LxExG): 208 µM
KH ([2]; 1 mM LAETG): 26.5 ± 0.6 µM
KN ([2]; 1 mM LAETG, eight GGG concentrations): 26.5 ± 0.6 µM
Km ([2]; 1 mM LAETG, read-out: Km,GGG): 807 ± 56 µM
Kcat (Hz) ([2]; Sub LAETG, 100 mM GGG): 1.31 ± 0.26 Hz
Km [2, 8]: 6070 ± 870 µM
Rel. Activity ([2]; Sub LAETG): 103.3
Kcat (Hz) ([2]; Table 2, Sub LAETG): 1.31 ± 0.26 Hz
Km [2, 9]: 6070 ± 870 µM
preference for LPETG over LAETG ([2]; ratio of kcat/KM): 103 fold
specificity (relative cat. Efficiency, fold) ([2]; ratio of kcat/Km between 2A (LAETG) and wt (LPETG) substrates, favoured over disfavoured): 122.6 fold
kcat, 10 mM GGG (Hz) ([2]; substrate 2A (LAETG), 10 mM GGG): 1.316 Hz
Km ([2]; substrate 2A (LAETG), read-out: Km, LxExG): 6160 µM
KH ([3]; 1 mM LPESG): 76 ± 19 µM
KN ([3]; 1 mM LPESG): 76 ± 19 µM
Km ([3]; 1 mM LPESG, read-out: Km,GGG): 22000 ± 900 µM
Kcat (Hz) ([3]; Sub LPESG, 100 mM GGG): 1.46 ± 0.13 Hz
Km [3, 10]: 318 ± 58 µM
Rel. Activity ([3]; Sub LPESG): 4.9
Kcat (Hz) ([3]; Table 2, Sub LPESG): 1.46 ± 0.13 Hz
Km [3, 11]: 318 ± 58 µM
kcat, 10 mM GGG (Hz) ([3]; substrate 4S (LPESG), 10 mM GGG): 1.74 Hz
Km ([3]; substrate 4S (LPESG), read-out: Km, LxExG): 672 µM
KH ([4]; 1 mM LSETG): 37.4 ± 3.4 µM
Km ([4]; 1 mM LSETG, read-out: Km,GGG): 337 ± 16 µM
Kcat (Hz) ([4]; Sub LSETG, 100 mM GGG): 0.102 ± 0.001 Hz
Km ([4]; Sub LSETG, 100 mM GGG, read-out: Km): 533 ± 24 µM
KH ([5]; 1 mM LPEAG): 599 ± 41 µM
Km ([5]; 1 mM LPEAG, read-out: Km,GGG): 48400 ± 3100 µM
Kcat (Hz) ([5]; Sub LPEAG, 100 mM GGG): 0.74 ± 0.04 Hz
Km [5, 12]: 83.4 ± 0.6 µM

B2: eSrtA(4S-9): P94R, N98D, S102C, A104V, A118T, F122A, K134R, F144L, D160N, D165A, I182V, E189F, K190E, K196T (protein)
chain: B1 chain with N39D, S43C, A45V, A59T, F63A, K75R, F85L, I123V, E130F
KH ([1]; 1 mM LPETG): 295 ± 19 µM
KN ([1]; 1 mM LPETG): 295 ± 19 µM
Km ([1]; 1 mM LPETG, read-out: Km,GGG): 98000 ± 13000 µM
Avg kcat (Hz) ([1]; Example 5 variants, substrate wt (LPETG)): 0.0468 Hz
Km ([1]; Example 5 variants, substrate wt (LPETG), read-out: Avg KM): 66.1 µM
Avg kHydro (Hz) [1, 13]: 0.000173 Hz
Avg kcat (Hz) [1, 13]: 0.05704 Hz
Km ([1]; KM for GGG, substrate wt (LPETG), read-out: Avg KM): 97600 µM
KH,LPETG [1]: 295 ± 18 µM
Kcat (Hz) ([1]; Sub LPETG, 100 mM GGG): 0.047 ± 0.006 Hz
Km [1, 6]: 64.7 ± 4.2 µM
Rel. Activity ([1]; Sub LPETG): 25
Kcat (Hz) ([1]; Table 2, Sub LPETG): 0.047 ± 0.006 Hz
Km [1, 7]: 64.7 ± 4.2 µM
activity on LPETG ([1]; round 9 clones): minimally active on LPETG
Avg KH ([1]; substrate wt (LPETG)): 294.8601 µM
activity on LAETG [2]: negligible activity
Kcat (Hz) ([2]; Sub LAETG, 100 mM GGG): 0.0078 ± 0.0006 Hz
Km [2, 8]: 387 ± 49 µM
Rel. Activity ([2]; Sub LAETG): 898
Kcat (Hz) ([2]; Table 2, Sub LAETG): 0.0078 ± 0.0006 Hz
Km [2, 9]: 387 ± 49 µM
KH ([3]; 1 mM LPESG): 174 ± 32 µM
KN ([3]; 1 mM LPESG): 174 ± 32 µM
Km ([3]; 1 mM LPESG, read-out: Km,GGG): 69000 ± 12000 µM
Avg kcat (Hz) ([3]; Example 5 variants, substrate 4S (LPESG)): 2.146 Hz
Km ([3]; Example 5 variants, substrate 4S (LPESG), read-out: Avg KM): 123 µM
Avg kHydro (Hz) [3, 14]: 0.008016 Hz
Avg kcat (Hz) [3, 14]: 3.178 Hz
Km ([3]; KM for GGG, substrate 4S (LPESG), read-out: Avg KM): 69500 µM
KH (KH,LPESG) ([3]; LPESG substrate): 174 ± 32 µM
Kcat (Hz) ([3]; Sub LPESG, 100 mM GGG): 2.05 ± 0.15 Hz
Km [3, 10]: 113 ± 12 µM
Rel. Activity ([3]; Sub LPESG): 1
Kcat (Hz) ([3]; Table 2, Sub LPESG): 2.05 ± 0.15 Hz
Km [3, 11]: 113 ± 12 µM
change in specificity for LPESG versus LPETG relative to eSrtA ([3]; ratio of (kcat/KM)target to (kcat/KM)LPETG, relative to eSrtA): 120 fold and 125 fold
preference for LPESG over LPETG ([3]; ratio of kcat/KM): 25 fold
Specificity ([3]; ratio of kcat/KM, 4S (LPESG) over wt (LPETG)): 24.953
Avg KH ([3]; substrate 4S (LPESG)): 173.5925 µM
KH ([5]; 1 mM LPEAG): 193 ± 30 µM
Km ([5]; 1 mM LPEAG, read-out: Km,GGG): 41000 ± 4000 µM
Kcat (Hz) ([5]; Sub LPEAG, 100 mM GGG): 1.90 ± 0.01 Hz
Km [5, 12]: 154 ± 3 µM
